Test [1] has as its system GFP(3TAG). Format: cell-based, E. coli.
The subject of test [2] is TAG codons. Description: MRM mass spectrometry quantitation of nsAA incorporation in ELP-GFP. Also noted: species or system E. coli. The following applies: for pAcF (Y) / pAcF: calculated as 100%−Y %−F %; for near cognate suppression and mischarging events of K, P, L/I, and Q: content in proteins produced. As to the method: Purified ELP-GFP protein was dissolved by vortex in protein solubilization buffer (15 mM Tris-HCl, 1.5 mM EDTA, pH=8.5) and the protein concentration was determined by UV280. Solubilization buffer was then added to adjust the concentration of the protein stock solutions to 2.0 μg/μl. For protein digestion, 12.5 μl of this solution (25 μg) was supplemented with 3.125 μl freshly prepared digestion buffer 5×. The composition of the digestion buffer 5× was: 50 mM Tris-HCl pH=8.5, 5 mM EDTA, 50 mM DTT and 2.5% (w/v) freshly prepared acid labile surfactant II (ALS II). Proteins were thermally denatured in a heat block at 95° C. for 5 min and the reaction was then quenched on ice. To alkylate the cysteines, 2.5 μl of 1 M Tris-HCl buffer (pH=8.5) and 5.83 μl freshly prepared 100 mM IAA solution were added. The reaction proceeded for 30 min at room temperature and in the dark. Excess IAA was quenched with 0.875 μl of 200 mM aqueous DTT solution. Next, 1.25 μl LysC enzyme solution, prepared at 7.0×10^−4 activity units/μl in water, were added and protein was digested for 4 h at 37° C. in an incubator without shaking. The digest was supplemented with 157.77 μl 105.6 mM Tris-HCl pH=8.5 buffer containing 5.28 mM CaCl2. For digestion with trypsin, 3.6 μl sequencing grade porcine trypsin (Promega), provided as solution with 0.5 μg/μl trypsin, was added and digestion proceeded for 15 h at 37° C. in an incubator without shaking. The digest was quenched by adding 15.63 μl 20% TFA solution. The pH value of the digest was tested with pH indicator paper to ensure that the pH value was between a value of 1 and 2 to ensure efficient cleavage conditions for ALSII. Detergent was hydrolyzed for 15 min at 23° C. and peptides were desalted using C18 UltraMicroSpin columns (The Nest Group, Southborough, Mass.) following the instructions provided with the columns. Eluted peptides solutions were dried in a vacuum centrifuge which was operated at 45° C. The dried peptides were then dissolved by vortex in 11 μl peptide solvent consisting of 2:3:7 by volume 70% FA, 1-propanol and 0.5% acetic acid. The peptide concentration was determined by UV280 enabling equal loading for LC-MS. Peptide stock solutions were frozen at −80° C. until use. For shotgun proteomic analysis, peptide stock solutions were diluted to a concentration of 60 ng/μl in 3:8 by volume 70% formic acid 0.1 TFA and 5 μl corresponding to 300 ng total peptides were injected for each analysis.
The C-terminally labeled stable isotope labeled peptides (lysine (^13C6^15N2) or arginine (^13C6^15N4)) VPGAGVPGYGVPGVGK, VPGAGVPGFGVPGVGK and FEGDTLVNR were obtained as a lyophilized powder supplied as 1 nmol aliquots. Peptides were dissolved in 30% acetonitrile 0.1% formic acid at a concentration of 20 pmol/μl. Standards were then combined to obtain a master mix with 6.666 pmol/μl of each peptide. Dilution of peptide standards and protein digest for MRM was performed in Agilent polypropylene sample vials with MRM solvent consisting of 100 ng/μl sodium deoxycholate in 3:7 by volume DMSO/0.1% formic acid. Calibration of the instrument was performed with a 11 point calibration curve with 0, 1, 2, 5, 10, 20, 50, 100, 200, 500 and 1000 fmol peptide injected. Peptide stock solutions from the digestion of ELP-GFP were prepared at 5 ng/μl in MRM solvent containing 50 fmol/μl of the stable isotope labeled peptides. MRM solvent blank injections between sample injections and quality control standards analyzed before and after sample injection ensured consistent performance of the MRM platform.
Shotgun discovery data from the analysis of stable isotope labeled peptides and ELP-GFP digests were imported into Skyline^2 software v. 2.5 to extracted suitable transitions for MRM quantitation of peptides. A detailed description of this workflow will be reported somewhere else^3. Briefly, at least 3 transitions were extracted for peptides reporting incorporation of natural and unnatural amino acids at the position of the stop codon. […]

The mark [3] stands for this setting: chromosomally integrated AARS, pAzF.
[4] abbreviates: ELP(10TAG)-GFPMS, nsAA added pAzF, N = 3.
Where [5] appears, read: ELP(10TAG)-GFPMS, nsAA added pAcF.
The mark [6] stands for this setting: ELP(30TAG)-GFPMS, nsAA added pAcF.
[7] abbreviates: ELP(10TAG)MS-ELP(20TAG)-GFP, nsAA added pAcF.
[8] abbreviates: ELP(20TAG)-ELP(10TAG)MS-GFP, nsAA added pAcF.

Like-named read-outs stand apart in the source and are kept apart here.

B1: pAzFRS.1.t1: pAcFRS variant D158V, I159M, L162D, A167Y, R257G, SEQ ID NO: 11 (protein)
chain: MDEFEMIKRNTSEIISEEELREVLKKDEKSALIGFEPSGKIHLGHYLQIKKMIDLQNAGFDIIILLADLHAYLNQKGELDEIRKIGDYNKKVFEAMGLKAKYVYGSEFQLDKDYTLNVYRLALKTTLKRARRSMELIAREDENPKVAEVIYPIMQVNVMHYDGVDVYVGGMEQRKIHMLARELLPKKVVCIHNPVLTGLDGEGKMSSSKGNFIAVDDSPEEIRAKIKKAYCPAGVVEGNPIMMEIAKYFLEYPLTIKGPEKFGGDLTVNSYEELESLFKNKELHPMRLKNAVAEELIKILEPIRKRL
For the molecule B1, the “higher GFP(3TAG) production compared with the progenitor enzyme” value in test [1] (setting [3]) is reported as about 5.5 fold. Also, in test [2] (setting [4]), the “F at TAG position” value was determined as 3.34% and the “Y at TAG position” value is 0.13%.

B2: pAcFRS.1.t1: pAcFRS variant A167D, R257G, SEQ ID NO: 5 (protein)
chain: MDEFEMIKRNTSEIISEEELREVLKKDEKSALIGFEPSGKIHLGHYLQIKKMIDLQNAGFDIIILLADLHAYLNQKGELDEIRKIGDYNKKVFEAMGLKAKYVYGSEFQLDKDYTLNVYRLALKTTLKRARRSMELIAREDENPKVAEVIYPIMQVNGCHYRGVDVDVGGMEQRKIHMLARELLPKKVVCIHNPVLTGLDGEGKMSSSKGNFIAVDDSPEEIRAKIKKAYCPAGVVEGNPIMEIAKYFLEYPLTIKGPEKFGGDLTVNSYEELESLFKNKELHPMRLKNAVAEELIKILEPIRKRL
Take B2: in test [1] (chromosomally integrated AARS, pAcF), the “higher GFP(3TAG) production compared with the progenitor enzyme” value is reported as about 17 fold. Besides, in test [2] (setting [5]), the “F at TAG position” value stood at 0.26%, the “Y at TAG position” value is recorded as 2.42% and the “pAcF (Y)” value is listed as 97.32%. In addition, in test [2] (setting [6]), the “F at TAG position” value came out at 0.29%, the “Y at TAG position” value came to 1.53% and the pAcF is on record as 98.18%. Further, the “near cognate suppression and mischarging events of K, P, L/I, and Q” value in test [2] is on record as “striking decrease”.

B3: pAcFRS: progenitor M. jannaschii based p-acetyl-L-phenylalanine AARS, SEQ ID NO:1 (Young, et al., 2010) (protein, listed as Methanocaldococcus jannaschii)
chain: MDEFEMIKRNTSEIISEEELREVLKKDEKSALIGFEPSGKIHLGHYLQIKKMIDLQNAGFDIIILLADLHAYLNQKGELDEIRKIGDYNKKVFEAMGLKAKYVYGSEFQLDKDYTLNVYRLALKTTLKRARRSMELIAREDENPKVAEVIYPIMQVNGCHYRGVDVAVGGMEQRKIHMLARELLPKKVVCIHNPVLTGLDGEGKMSSSKGNFIAVDDSPEEIRAKIKKAYCPAGVVEGNPIMEIAKYFLEYPLTIKRPEKFGGDLTVNSYEELESLFKNKELHPMRLKNAVAEELIKILEPIRKRL
With B3, in test [1] (RF1 deficient GRO, chromosomal versus plasmid OTS), the “decrease in the yield of GFP(3TAG) by genomic integration of the OTS” value is on record as about 20 fold. For the same molecule, in test [2] (setting [5]), the “F at TAG position” value is reported as 0.36%, the “Y at TAG position” value is listed as 1.37% and the “pAcF (Y)” value is 98.26%. For the same molecule, in test [2] (setting [6]), the “F at TAG position” value worked out at 0.55%, the “Y at TAG position” value was 1.14% and the pAcF is given as 98.31%.

B4: pAzFRS.2.t1: pAcFRS variant E107T, F108Y, Q109M, R257G, SEQ ID NO: 14 (protein)
chain: MDEFEMIKRNTSEIISEEELREVLKKDEKSALIGFEPSGKIHLGHYLQIKKMIDLQNAGFDIIILLADLHAYLNQKGELDEIRKIGDYNKKVFEAMGLKAKYVYGSTYMLDKDYTLNVYRLALKTTLKRARRSMELIAREDENPKVAEVIYPIMQVNGCHYRGVDVAVGGMEQRKIHMLARELLPKKVVCIHNPVLTGLDGEGKMSSSKGNFIAVDDSPEEIRAKIKKAYCPAGVVEGNPIMEIAKYFLEYPLTIKGPEKFGGDLTVNSYEELESLFKNKELHPMRLKNAVAEELIKILEPIRKRL
For the molecule B4, in test [1] (setting [3]), the “higher GFP(3TAG) production compared with the progenitor enzyme” value was about 25 fold. Further, the “F at TAG position” value in test [2] (ELP(10TAG)-GFPMS, No nsAA) is listed as 55.35%; in test [2] (setting [5]), 2.45%; in test [2] (setting [7]), 3.74%; in test [2] (setting [8]), 3.25%; in test [2] (setting [6]) it was 2.87%. Also, the “Y at TAG position” value was 50.15% in test [2] (ELP(10TAG)-GFPMS, No nsAA); 2.08% in test [2] (setting [5]); 2.19% in test [2] (setting [7]); 2.17% in test [2] (setting [8]); 1.78% in test [2] (setting [6]). Also, the “pAcF (Y)” value in test [2] (ELP(10TAG)-GFPMS, No nsAA) is −5.50%; in test [2] (setting [5]), 95.47%. Also, the pAcF is given as 94.06% in test [2] (setting [7]), 94.58% in test [2] (setting [8]) and 95.35% in test [2] (setting [6]). Further, the “near cognate suppression and mischarging events of K, P, L/I, and Q” value in test [2] is on record as “striking decrease”.

B5: pAcFRS.2.t1: pAcFRS variant L65V, A167D, R257G, SEQ ID NO: 8 (protein)
chain: MDEFEMIKRNTSEIISEEELREVLKKDEKSALIGFEPSGKIHLGHYLQIKKMIDLQNAGFDIIIVLADLHAYLNQKGELDEIRKIGDYNKKVFEAMGLKAKYVYGSEFQLDKDYTLNVYRLALKTTLKRARRSMELIAREDENPKVAEVIYPIMQVNGCHYRGVDVDVGGMEQRKIHMLARELLPKKVVCIHNPVLTGLDGEGKMSSSKGNFIAVDDSPEEIRAKIKKAYCPAGVVEGNPIMEIAKYFLEYPLTIKGPEKFGGDLTVNSYEELESLFKNKELHPMRLKNAVAEELIKILEPIRKRL
For B5, in test [1] (GFP(3TAG) expression, chromosomally integrated AARS), the “selectivity toward pAcF over pAzF” value is “increase in selectivity”.

Values taken from patent US10501734B2, “Compositions and methods of use thereof for making polypeptides with many instances of nonstandard amino acids” (Yale University, priority 2014, dated 2019).
